Measurements reported in article PMC10576055.
Where “and” joins values, the source holds several entries; their conditions need not be identical. Equal values may be shown once.

Biological target: T1, GIPR-Rluc8 (human), P48546
T1 chain: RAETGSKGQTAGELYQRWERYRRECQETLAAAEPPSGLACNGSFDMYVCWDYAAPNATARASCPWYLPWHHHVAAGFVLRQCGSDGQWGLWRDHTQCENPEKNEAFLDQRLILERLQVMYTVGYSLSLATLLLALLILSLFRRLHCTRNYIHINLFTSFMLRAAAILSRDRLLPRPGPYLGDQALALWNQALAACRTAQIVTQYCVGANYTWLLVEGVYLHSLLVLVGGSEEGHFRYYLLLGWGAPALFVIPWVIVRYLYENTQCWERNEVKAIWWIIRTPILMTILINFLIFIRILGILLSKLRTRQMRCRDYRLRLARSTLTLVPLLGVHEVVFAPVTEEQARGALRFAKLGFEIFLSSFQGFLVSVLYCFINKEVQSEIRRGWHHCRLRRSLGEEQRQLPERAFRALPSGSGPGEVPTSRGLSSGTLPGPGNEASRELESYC
Test: FRET or BRET
Settings: remark: other sources report otherwise

B1: Venus-β-arrestin 1, P49407 1-418 (natural protein)
chain: MGDKGTRVFKKASPNGKLTVYLGKRDFVDHIDLVDPVDGVVLVDPEYLKERRVYVTLTCAFRYGREDLDVLGLTFRKDLFVANVQSFPPAPEDKKPLTRLQERLIKKLGEHAYPFTFEIPPNLPCSVTLQPGPEDTGKACGVDYEVKAFCAENLEEKIHKRNSVRLVIRKVQYAPERPGPQPTAETTRQFLMSDKPLHLEASLDKEIYYHGEPISVNVHVTNNTNKTVKKIKISVRQYADICLFNTAQYKCPVAMEEADDTVAPSSTFCKVYTLTPFLANNREKRGLALDGKLKHEDTNLASSTLLREGANREILGIIVSYKVKVKLVVSRGGLLGDLASSDVAVELPFTLMHPKPKEEPPHREVPENETPVDTNLIELDTNDDDIVFEDFARQRLKGMKDDKEEEEDGTGSPQLNNR
Question: B1 was tested. Which pEC50 of GIP (1-42) for β-arr1 recruitment (BRET) did it give?
Answer: 7.7 and 7.94 and 7.67
